{"source": "patent US20180334494A1", "about": "(UNIVERSITY OF VIRGINIA PATENT FOUNDATION, published 2018)", "biological_target": "T1, C-terminal domain of Zaire Ebola virus Nucleoprotein (NP^Ct) (Zaire Ebola virus, UniProt P18272 641-739)", "T1 construct": "also called Zaire NP^Ct; Zaire EBOV NP^Ct", "T1 sequence (P18272 641-739, tags left off)": "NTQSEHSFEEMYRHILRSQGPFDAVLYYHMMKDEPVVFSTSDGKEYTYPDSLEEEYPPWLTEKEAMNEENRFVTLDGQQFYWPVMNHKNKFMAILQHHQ", "test": "ITC", "data": [{"binder": "Fab 6 (Fab, V domains shown) VH: EVQLVESGGGLVQPGGSLRLSCAASGFNVYYYYIHWVRQAPGKGLEWVASISPYYGYTSSYADSVKGRFTISADTSKNTAYLQMNSLRAEDTAVYYCARWSYDQSMSYKSGMDYWGQGTLVTVSS VL: DIQMTQSPSSLSASVGDRVTITCRASQSVSSAVAWYQQKPGKAPKLLIYSASSLYSGVPSRFSGSRSGTDFTLTISSLQPEDFATYYCQQYSYSLVTFGQGTKVEIKR", "values": [{"measurement": "Kd", "value": "~5", "unit": "nM"}]}, {"binder": "Fab 20 (Fab, V domains shown) VH: EVQLVESGGGLVQPGGSLRLSCAASGFNISYSSIHWVRQAPGKGLEWVASIYSYSGYTSYADSVKGRFTISADTSKNTAYLQMNSLRAEDTAVYYCARSYWYHVGSWHYTGMDYWGQGTLVTVSS VL: DIQMTQSPSSLSASVGDRVTITCRASQSVSSAVAWYQQKPGKAPKLLIYSASSLYSGVPSRFSGSRSGTDFTLTISSLQPEDFATYYCQQSSSSLITFGQGTKVEIKR", "values": [{"measurement": "Kd", "value": "~5", "unit": "nM"}]}]}
